# Laboratory results from article PMC3346141.
# Biological target: TssL-His expressed in A. tumefaciens ΔtssMΔtssL (pTrc-TssL-His) (Agrobacterium tumefaciens)
# Assay: pull-down
substance,measurement,value
"Hcp, endogenous in A. tumefaciens (natural protein)","Hcp signal relative to TssL-His in the bound fraction, H2O-treated cells",0.21
